Measurements taken from patent publication US8663616B2, “Enzymatic peracid generation for use in oral care products” (E I du Pont de Nemours and Company, priority 2010, dated 2014).

B1: EZ-37: ArE-link1-H6, SEQ ID NO: 461 (protein)
chain: MAKRILCFGDSLTWGWVPVEDGAPTERFAPDVRWTGVLAQQLGADFEVIEEGLVARTTNIDDPTDPRLNGASYLPSCLATHLPLDLVIIMLGTNDTKAYFRRTPLDIALGMSVLVTQVLTSAGGVGTTYPAPKVLVVSPPPLAPMPHPWFQLIFEGGEQKTTELARVYSALASFMKVPFFDAGSVISTDGVDGIHFTEANNRDLGVALAEQVRSLLGPGSGGAGSPGSAGGPGSHHHHHH
B2: EZ-39: ArE-link1-(GK)5-H6, SEQ ID NO: 463 (protein)
chain: MAKRILCFGDSLTWGWVPVEDGAPTERFAPDVRWTGVLAQQLGADFEVIEEGLVARTTNIDDPTDPRLNGASYLPSCLATHLPLDLVIIMLGTNDTKAYFRRTPLDIALGMSVLVTQVLTSAGGVGTTYPAPKVLVVSPPPLAPMPHPWFQLIFEGGEQKTTELARVYSALASFMKVPFFDAGSVISTDGVDGIHFTEANNRDLGVALAEQVRSLLGPGSGGAGSPGSAGGPGSGKGKGKGKGKHHHHHH
B3: EZ-40: ArE-link1-DenP308-H6, SEQ ID NO: 464 (protein)
chain: MAKRILCFGDSLTWGWVPVEDGAPTERFAPDVRWTGVLAQQLGADFEVIEEGLVARTTNIDDPTDPRLNGASYLPSCLATHLPLDLVIIMLGTNDTKAYFRRTPLDIALGMSVLVTQVLTSAGGVGTTYPAPKVLVVSPPPLAPMPHPWFQLIFEGGEQKTTELARVYSALASFMKVPFFDAGSVISTDGVDGIHFTEANNRDLGVALAEQVRSLLGPGSGGAGSPGSAGGPGSDPTKPPRTPTANTSRPHHNFGSGGGGSPHHHHHH
B4: EZ-36: M. smegmatis aryl esterase ArE S54V, untargeted, SEQ ID NO: 460 (protein, listed as Mycobacterium smegmatis)
chain: MAKRILCFGDSLTWGWVPVEDGAPTERFAPDVRWTGVLAQQLGADFEVIEEGLVARTTNIDDPTDPRLNGASYLPSCLATHLPLDLVIIMLGTNDTKAYFRRTPLDIALGMSVLVTQVLTSAGGVGTTYPAPKVLVVSPPPLAPMPHPWFQLIFEGGEQKTTELARVYSALASFMKVPFFDAGSVISTDGVDGIHFTEANNRDLGVALAEQVRSLL
B5: EZ-42: Pfl-link1-(GK)5-H6, SEQ ID NO: 466 (protein)
chain: MSTFVAKDGTQIYFKDWGSGKPVLFSHGWPLDADMWEYQMEYLSSRGYRTIAFDRRGFGRSDQPWTGNDYDTFADDIAQLIEHLDLKEVTLVGFSMGGGDVARYIARHGSARVAGLVLLGAVTPLFGQKPDYPQGVPLDVFARFKTELLKDRAQFISDFNAPFYGINKGQVVSQGVQTQTLQIALLASLKATVDCVTAFAETDFRPDMAKIDVPTLVIHGDGDQIVPFETTGKVAAELIKGAELKVYKDAPHGFAVTHAQQLNEDLLAFLKRGPGSGGAGSPGSAGGPGSGKGKGKGKGKHHHHHH
B6: EZ-43: Pfl-link1-DenP308-H6, SEQ ID NO: 467 (protein)
chain: MSTFVAKDGTQIYFKDWGSGKPVLFSHGWPLDADMWEYQMEYLSSRGYRTIAFDRRGFGRSDQPWTGNDYDTFADDIAQLIEHLDLKEVTLVGFSMGGGDVARYIARHGSARVAGLVLLGAVTPLFGQKPDYPQGVPLDVFARFKTELLKDRAQFISDFNAPFYGINKGQVVSQGVQTQTLQIALLASLKATVDCVTAFAETDFRPDMAKIDVPTLVIHGDGDQIVPFETTGKVAAELIKGAELKVYKDAPHGFAVTHAQQLNEDLLAFLKRGPGSGGAGSPGSAGGPGSDPTKPPRTPTANTSRPHHNFGSGGGGSPHHHHHH
B7: EZ-44: Pfl-link1-HC263-H6, SEQ ID NO: 479 (protein)
chain: MSTFVAKDGTQIYFKDWGSGKPVLFSHGWPLDADMWEYQMEYLSSRGYRTIAFDRRGFGRSDQPWTGNDYDTFADDIAQLIEHLDLKEVTLVGFSMGGGDVARYIARHGSARVAGLVLLGAVTPLFGQKPDYPQGVPLDVFARFKTELLKDRAQFISDFNAPFYGINKGQVVSQGVQTQTLQIALLASLKATVDCVTAFAETDFRPDMAKIDVPTLVIHGDGDQIVPFETTGKVAAELIKGAELKVYKDAPHGFAVTHAQQLNEDLLAFLKRGPGSGGAGSPGSAGGPGSPSAQSQLPDKHSGLHERAPQRYGPEPEPEPEPIPEPPKEAPVVIEKPKPKPKPKPKPPAHDHKNQKETHQRHAAGSGGGGSPHHHH
B8: EZ-41: Pfl-link1-H6, SEQ ID NO: 465 (protein)
chain: MSTFVAKDGTQIYFKDWGSGKPVLFSHGWPLDADMWEYQMEYLSSRGYRTIAFDRRGFGRSDQPWTGNDYDTFADDIAQLIEHLDLKEVTLVGFSMGGGDVARYIARHGSARVAGLVLLGAVTPLFGQKPDYPQGVPLDVFARFKTELLKDRAQFISDFNAPFYGINKGQVVSQGVQTQTLQIALLASLKATVDCVTAFAETDFRPDMAKIDVPTLVIHGDGDQIVPFETTGKVAAELIKGAELKVYKDAPHGFAVTHAQQLNEDLLAFLKRGPGSGGAGSPGSAGGPGSHHHHHH

What was measured:
Format in all cases: biochemical
[1] = M. smegmatis aryl esterase constructs, peracetic acid when bound to hydroxyapatite particles (Example 10); conditions: 33 mg HAP particles exposed to 10 μM enzyme; 100 mM triacetin, 100 mM H2O2, 30 min, 37° C.; no enzyme 323
Description: (§1) The detection of peracetic acid followed the method described in Pinkernell et. al. (Analyst, 1997, 122, 567) using colorimetric detection of 2,2′-azino-bis(3-ethylbenzothiazoline(-6-sulfonate (ABTS) oxidation by peracetic acid. Following the formation of peracetic acid with the addition of triacetin and hydrogen peroxide, 90 μL of solution was added to 10 μL of 0.1 M H3PO4 in a well plate. 50 μL of 1 M acetic acid, 50 μL of 0.5 g/L ABTS and 50 μL of 0.002 g/L of KI was added. The solution was allowed to develop for 5 min. The absorbance of the solution was measured at 405 nm using a microplate reader. The peracetic acid concentration was calculated based on a standard curve developed simultaneously using peracetic acid reagent solution.
For assessment of binding and activity on hydroxyapatite, the aryl esterase enzymes were exposed to hydroxyapatite particles as described in Example 8 using 33 mg of buffer washed HAP particles (Macro-prep Ceramic Hydroxyapatite TYPE I, 80 μm size BioRad, Hercules, Calif.) using a 10 μM solution in 10 mM phosphate buffer. Following centrifugation and removal of the enzyme solution, the particles were rinsed with phosphate butter by centrifuging and removing the supernatant. A 200 μL solution containing 100 mM triacetin, 100 mM H2O2 and 100 mM phosphate buffer, pH 7.2 was added to the particles and incubated at 37° C. for 30 min. As described in Example 7, the reaction was stopped by removing a portion to H3PO4 and a 10 μL aliquot was removed diluted for detection via ABTS oxidation.

[2] = M. smegmatis aryl esterase constructs, peracetic acid in solution (Example 10); conditions: 0.5 μM enzyme, 100 mM triacetin, 100 mM H2O2, pH 7.2, 30 min, 37° C.; no enzyme 158
Description: as §1
For aryl esterase constructs, the enzyme activity in solution was measured by making a 1 mL solution of 0.5 μM of each enzyme, 100 mM triacetin, and 100 mM H2O2 in 100 mM phosphate buffer, pH 7.2. The solution was mixed and incubated for 30 min, at 37° C. As described in Example 7, the reaction was stopped by removing a portion to H3PO4 and a 10 μL aliquot was removed and diluted for detection via ABTS oxidation.

[3] = P. fluorescens perhydrolase constructs, peracetic acid in solution (Example 10); conditions: 2 μM enzyme, 100 mM H2O2, 1 M sodium acetate pH 5.5, 30 min, 37° C.; no enzyme 9
Description: as §1
(§2) For P. fluorescens constructs, the solution activity was measured by mixing a 1 mL solution containing 2 μM enzyme, 100 mM H2O2 in a 1 M sodium acetate buffer, pH 5.5. The solution was incubated at 37° C. for 30 min. As described in Example 7, the reaction was stopped by removing a portion to H3PO4 and a 10 μL aliquot was removed and diluted for detection via ABTS oxidation. For assessment of binding and activity on hydroxyapatite, the P. fluorescens enzymes were exposed to hydroxyapatite particles at 20 μM in 10 mM phosphate buffer as described in Example 8 using 100 mg of buffer washed HAP particles (Macro-prep Ceramic Hydroxyapatite TYPE I, 80 μm size BioRad, Hercules, Calif.). Following centrifugation and removal of the enzyme solution, the particles were rinsed with phosphate butter by centrifuging and removing the supernatant. A 200 μL solution containing 300 mM H2O2 in 1 M sodium acetate buffer, pH 5.5 was added to the particles and incubated at 37° C. for 10 min. As described in Example 7, the reaction was stopped by removing a portion to H3PO4 and a 10 μL aliquot was removed and diluted for detection via ABTS oxidation.

[4] = P. fluorescens perhydrolase constructs, peracetic acid when bound to hydroxyapatite particles (Example 10); conditions: 100 mg HAP particles exposed to 20 μM enzyme; 300 mM H2O2, 1 M sodium acetate pH 5.5, 10 min, 37° C.; no enzyme 17
Description: as §1, §2

Row | Molecule | Peracetic acid (ppm) On Hydroxyapatite [1] | Peracetic acid (ppm) In Solution [2] | Peracetic acid (ppm) In Solution [3] | Peracetic acid (ppm) On Hydroxyapatite [4]
1 | B1 | 927 ppm | – | – | –
2 | B2 | 3553 ppm | 1366 ppm | – | –
3 | B3 | 2476 ppm | 3605 ppm | – | –
4 | B4 | 452 ppm | 2697 ppm | – | –
5 | B5 | – | – | 64 ppm | 63 ppm
6 | B6 | – | – | 79 ppm | 68 ppm
7 | B7 | – | – | 58 ppm | 97 ppm
8 | B8 | – | – | – | 18 ppm
